Substrate: Nc1ncnc2c1ncn2[C@@H]1O[C@H](COP(=O)(O)OP(=O)(O)OP(=O)(O)O)[C@@H](O)[C@H]1O
Assay: purified protein
Conditions: 50 mM Tris-HCl pH 8.0, 20 mM MgCl2, 1 mM EDTA, 37 °C

B1: mBcs1 (full-length mouse Bcs1; mBcs1-His) (Mus musculus) (protein)
chain: MPFSDFVLALKDNPYFGAGFGLVGVGTALAMARKGAQLGLVAFRRHYMITLEVPARDRSYAWLLSWLTRHSTRTQHLSVETSYLQHESGRISTKFEFIPSPGNHFIWYQGKWIRVERNRDMQMVDLQTGTPWESVTFTALGTDRKVFFNILEEARALALQQEEGKTVMYTAVGSEWRTFGYPRRRRPLDSVVLQQGLADRIVKDIREFIDNPKWYIDRGIPYRRGYLLYGPPGCGKSSFITALAGELEHSICLLSLTDSSLSDDRLNHLLSVAPQQSLVLLEDVDAAFLSRDLAVENPIKYQGLGRLTFSGLLNALDGVASTEARIVFMTTNYIDRLDPALIRPGRVDLKEYVGYCSHWQLTQMFQRFYPGQAPSLAENFAEHVLKATSEISPAQVQGYFMLYKNDPMGAVHNIESLR
- Km: 40 µM

From publication PMC8482623
